Test results published in paper doi:10.1101/2019.12.15.877159.
Values belong to the substance of their own block, whether it stands above or below them.

What was measured:
Assay in all cases: non-reducing SDS-PAGE and western blot
[1] = target: transmembrane peptide of sDscamβ4 (Mesobuthus martensii)
[2] = target: transmembrane peptide of sDscamα (Mesobuthus martensii)
[3] = target: transmembrane peptide of sDscamβ5 (Mesobuthus martensii)
[4] = target: transmembrane peptide of sDscamβ2 (Mesobuthus martensii)
[5] = target: transmembrane peptide of sDscamβ6 (Mesobuthus martensii)
[6] = target: transmembrane peptide of sDscamβ3 (Mesobuthus martensii)

percent of dimers [1]: < 10%
stoichiometry N [1]: 2
Substance: transmembrane peptide of sDscamβ4 (domain or fragment)

percent of dimers [3]: < 10%
stoichiometry N [3]: 2
Substance: transmembrane peptide of sDscamβ5 (domain or fragment)

More lines, now with the values behind:

Substance: transmembrane peptide of sDscamα (domain or fragment)
stoichiometry N [2]: 2

Substance: transmembrane peptide of sDscamβ2 (domain or fragment)
stoichiometry N [4]: 2

Substance: transmembrane peptide of sDscamβ6 (domain or fragment)
stoichiometry N [5]: 2

Substance: transmembrane peptide of sDscamβ3 (domain or fragment)
stoichiometry N [6]: 2
